These results are taken from patent US20110009314A1, “Single-Chain Insulin Analogues and Pharmaceutical Formulations Thereof” (Novo Nordisk A/S, priority 2006, published 2011).

The data set is described as follows: Size exclusion chromatography (SEC, gelfiltration) migration of insulin analogues and mixtures relative to the standards X2 (monomer) and HSA. Type of data set: physicochemical. To be noted: D 1.2 mM, Zn 0.6 mM. For orientation: SEC sorts molecules by how far they enter the pores of the column.

Method: Migration of the insulin analogues and insulin analogue combinations were measured in relation to the standards mentioned below.
The test mixtures were formulated with conventional pharmaceutical adjuvants and additives. All mixtures were formulated with 16/16 mM phenol/cresol. Zinc was added as zinc acetate in various amounts. pH was 7.5.
Size exclusion chromatography (SEC) was performed essentially as described in Havelund et al. 2004 Pharmaceutical research, 21, 1498-1504. The chromatographic system was a Superose 6 HR PC 6/30 column (GE healthcare) eluted by tris-buffered isotonic saline (NaCl-140 mM, tris/HCl 10 mM, NaN3 0.01%, pH 7.5 at 37° C., injecting 1% of column volume and using a flow of 90 min per column volume and UV detection at 276 nm. The references were a stable insulin monomeric insulin X2 (AspB9, GluB27 human insulin, zinc free), a stable hexameric insulin: Co(III) insulin, albumin (HSA), and covalent albumin (formed in solution).

Turning to “Lys^B29(N^ε-(N-lithocholyl-γ-glutamyl)) des(B30) human insulin [Compound D]”, the “Measured SEC migration % HSA” value was found to be 78% and the “Measured SEC migration % X2” value came to 15%.
